Measurements from the supplement of paper PMC7877785.
± gives the uncertainty stated by the source.

Test: self-splicing fitness, log relative to wild type (ln ratio); higher = more splicing; Tetrahymena group I intron in knt gene, E. coli kanamycin selection, DiMSum; sequences stand for … in CUCUCU…GGAGGGAAAAGUUAUCAGGCAUGCACCUGGUAGCUAGUCUUUAAACCAAUAGAUUGCAUCGGUUUAAAAGGCAAGACCGUCAAAUUGCGGGAAAGGGGUCAACAGCCGUUCAGUACCAAGUCUCAGGGGAAACUUUGAGAUGGCCUUGCAAAGGGUAUGGUAAUAAGCUGACGGACAUGGUCCUAACCACGCAGCCAAGUCCUAAGUCAACAGAUCUUCUGUUGAUAUGGAUGCAGUUCACAGACUAAAUGUCGGUCGGGGAAGAUGUAUUCUUCUCAUAAGAUAUAGUCGGACCUCUCCUUAAUGGGAGCUAGCGGAUGAAGUGAUGCAACACUGGAGCCGCUGGGAACUAAUUUGUAUGCGAAAGUAUAUUGAUUAGUUUUGGAGUACUCGUGGUCG
Procedure, shortened: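 A randomised library covering all eight P1ex-region intron nucleotides was built with the intron in the knt kanamycin-resistance gene on pET-22b(+) and held in E. coli BL21(DE3). Cells were grown overnight at 37°C or 30°C on LB agar, with or without 25 μg/mL kanamycin, plus 100 μg/mL carbenicillin, 50 μM IPTG and 0.2% rhamnose, and pooled colonies were amplicon-sequenced on an Illumina HiSeq 2500. DiMSum fitness is the error-weighted combination of wild-type-normalised replicate fold changes, kanamycin versus none.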

Sequence	self-splicing fitness (ln) (30 °C)	self-splicing fitness (ln) (37 °C)
ACGCAGCAAUAUUACGGGUC	-4.12 ± 0.21	-2.92 ± 0.17
UACCAGCAAUAUUACGGCAC	-2.09 ± 0.066	-1.05 ± 0.067
CCCUAGCAAUAUUACGGACG	-2.32 ± 0.097	-1.15 ± 0.11
GAUUAGCAAUAUUACGUGCU	-2.46 ± 0.18	-1.26 ± 0.14
CAUGAGCAAUAUUACGUCUU	-4.56 ± 0.34	-2.53 ± 0.25
AAUGAGCAAUAUUACGACUC	-1.05 ± 0.13	-0.904 ± 0.15
CUGCAGCAAUAUUACGAGGC	-2.65 ± 0.17	-1.97 ± 0.22
CACCAGCAAUAUUACGUAGC	-4.18 ± 0.17	-2.41 ± 0.14
CACGAGCAAUAUUACGCCCG	-1.88 ± 0.29	-1.9 ± 0.28
GAGAAGCAAUAUUACGUCCC	-0.258 ± 0.28	-0.337 ± 0.29
CUACAGCAAUAUUACGCCGC	-3.76 ± 0.22	-3.62 ± 0.39
CCCCAGCAAUAUUACGGCAG	-3.92 ± 0.16	-2.22 ± 0.15
GAAUAGCAAUAUUACGCGAC	-1.89 ± 0.2	0.34 ± 0.18
ACCUAGCAAUAUUACGUAGG	-3.59 ± 0.2	-2.93 ± 0.21
AGCCAGCAAUAUUACGCGGC	-3.54 ± 0.25	-3.42 ± 0.31
GGAGAGCAAUAUUACGGCCG	-3.74 ± 0.42	-2.16 ± 0.42
AUGAAGCAAUAUUACGGGUC	-3.75 ± 0.18	-2.63 ± 0.23
UGUUAGCAAUAUUACGGCGU	-0.742 ± 0.1	-0.892 ± 0.14
GGUCAGCAAUAUUACGUGGG	-2.15 ± 0.089	-2.38 ± 0.15
CCCUAGCAAUAUUACGGCUU	-3.76 ± 0.18	-2.26 ± 0.18
AGGAAGCAAUAUUACGUUAG	-2.95 ± 0.21	-3.24 ± 0.29
GUAAAGCAAUAUUACGCUGC	-2.97 ± 0.24	-1.97 ± 0.28

Sequence	self-splicing fitness (ln) (30 °C)	self-splicing fitness (ln) (37 °C)
AUACAGCAAUAUUACGCUCA	-0.776 ± 0.069	0.318 ± 0.086
UAAUAGCAAUAUUACGGUCC	-2.53 ± 0.33	–
UCGCAGCAAUAUUACGGACG	-1.44 ± 0.15	-0.806 ± 0.13
CCAUAGCAAUAUUACGCCAC	–	-1.75 ± 0.49
AGAGAGCAAUAUUACGUGUC	–	-2.33 ± 0.37
UCCCAGCAAUAUUACGCGUU	-1.11 ± 0.075	-0.493 ± 0.089
GAGAAGCAAUAUUACGUUGU	-3.19 ± 0.19	-3.31 ± 0.32
AUCCAGCAAUAUUACGUUCU	-1.64 ± 0.096	-1.39 ± 0.13
UAAUAGCAAUAUUACGUGUA	-2.19 ± 0.12	-0.918 ± 0.1
GGUGAGCAAUAUUACGCGCG	-0.933 ± 0.087	-0.502 ± 0.12
CGGAAGCAAUAUUACGGAAC	-2.23 ± 0.34	–
AUCGAGCAAUAUUACGCGAA	-1.68 ± 0.2	-0.699 ± 0.2
AUUAAGCAAUAUUACGAUAA	-1.48 ± 0.12	-0.391 ± 0.14
CAGCAGCAAUAUUACGGGGU	-3.28 ± 0.15	-2.57 ± 0.16
CUAAAGCAAUAUUACGCACU	-3.41 ± 0.2	-2.34 ± 0.32
GUGAAGCAAUAUUACGCGCU	-2.31 ± 0.16	-1.47 ± 0.13
GGCGAGCAAUAUUACGAUGU	-3.69 ± 0.32	-1.53 ± 0.2
CGGAAGCAAUAUUACGACGU	-2.55 ± 0.11	-0.27 ± 0.12
GCGGAGCAAUAUUACGGUAC	–	-2.04 ± 0.36
CUCAAGCAAUAUUACGAUAU	-2.97 ± 0.14	-1.61 ± 0.14
AGCUAGCAAUAUUACGACUG	-0.901 ± 0.072	-0.941 ± 0.12
